One data set deals with fibrin (Homo sapiens, UniProt P02675+P02679). Conditions: cited from earlier work.
The target of data set [1] is T1, fibrinogen (Homo sapiens, UniProt P02675+P02679).
T1 sequence (P02679 27-437 isoform P02679-2 limits assumed): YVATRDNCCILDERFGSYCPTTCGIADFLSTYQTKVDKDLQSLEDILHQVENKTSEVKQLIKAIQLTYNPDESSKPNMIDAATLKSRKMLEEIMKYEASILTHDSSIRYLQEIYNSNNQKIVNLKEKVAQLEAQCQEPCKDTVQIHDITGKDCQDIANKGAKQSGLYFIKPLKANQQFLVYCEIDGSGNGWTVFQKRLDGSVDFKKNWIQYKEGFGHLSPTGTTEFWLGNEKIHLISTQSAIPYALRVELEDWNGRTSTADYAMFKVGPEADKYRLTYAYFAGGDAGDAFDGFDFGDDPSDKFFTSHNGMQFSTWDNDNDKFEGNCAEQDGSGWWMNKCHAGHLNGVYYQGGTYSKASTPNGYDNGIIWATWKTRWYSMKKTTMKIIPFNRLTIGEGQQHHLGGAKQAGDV
T1 sequence (P02675 31-491): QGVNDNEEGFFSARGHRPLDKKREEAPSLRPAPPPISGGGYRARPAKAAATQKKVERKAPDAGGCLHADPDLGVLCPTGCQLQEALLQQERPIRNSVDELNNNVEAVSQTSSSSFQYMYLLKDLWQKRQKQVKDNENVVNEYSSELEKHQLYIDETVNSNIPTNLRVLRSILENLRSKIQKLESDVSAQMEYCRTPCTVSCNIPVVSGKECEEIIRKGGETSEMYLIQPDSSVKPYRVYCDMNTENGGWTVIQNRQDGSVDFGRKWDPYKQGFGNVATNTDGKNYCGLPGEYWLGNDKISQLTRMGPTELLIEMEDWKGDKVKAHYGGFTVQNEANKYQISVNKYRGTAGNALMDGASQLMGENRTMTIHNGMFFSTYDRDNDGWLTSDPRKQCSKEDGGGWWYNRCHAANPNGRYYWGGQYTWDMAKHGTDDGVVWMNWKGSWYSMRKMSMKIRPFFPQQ
T1 sequence (P02671 20-629 partner limits assumed): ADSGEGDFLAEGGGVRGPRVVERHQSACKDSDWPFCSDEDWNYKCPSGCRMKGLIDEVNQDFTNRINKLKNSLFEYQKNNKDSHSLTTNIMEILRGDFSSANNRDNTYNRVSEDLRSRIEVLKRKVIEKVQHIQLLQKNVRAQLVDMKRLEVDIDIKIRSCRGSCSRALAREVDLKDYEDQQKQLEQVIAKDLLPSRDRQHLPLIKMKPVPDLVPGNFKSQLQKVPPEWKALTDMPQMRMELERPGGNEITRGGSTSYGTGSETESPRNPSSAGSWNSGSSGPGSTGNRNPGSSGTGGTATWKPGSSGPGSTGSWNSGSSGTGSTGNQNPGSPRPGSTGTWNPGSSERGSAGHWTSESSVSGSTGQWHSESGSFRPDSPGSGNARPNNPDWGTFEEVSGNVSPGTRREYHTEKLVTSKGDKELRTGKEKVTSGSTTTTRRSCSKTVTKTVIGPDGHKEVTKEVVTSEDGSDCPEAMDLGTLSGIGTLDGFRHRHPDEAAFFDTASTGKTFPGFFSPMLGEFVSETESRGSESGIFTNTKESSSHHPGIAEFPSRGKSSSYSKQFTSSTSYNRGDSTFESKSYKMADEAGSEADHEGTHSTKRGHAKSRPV
The experiment in a line: ELISA specificity assay: soluble Gxxx tetrapeptides competing with immobilized GPRP-FnIII9-10-C. In kind it is binding. Conditions: tetrapeptide in 10^2- to 10^4-fold molar excess; one-hour pre-incubation. As for the experimental part:
A modified ELISA technique was used to establish the affinity of fibrinogen for the various Gxxx-FnIII9-10-C (SEQ ID NO:20) proteins covalently immobilized on maleimide-activated plates via their C-terminal cysteines. Sulfhydryl-containing proteins/peptides were added to pre-blocked maleimide-activated 96-well plates (Pierce, Thermo Scientific, Rockford, Ill.) at 10 μg/mL in conjugation buffer (CB) comprising 150 mM NaCl, 100 mM phosphate, 10 mM EDTA, pH 7.2, with attachment occurring via maleimide-sulfhydryl (thioether) linkages. TCEP (1 mM) was added to maintain sulfhydryl groups in the reduced form. Following, unreacted maleimide groups were quenched with 20 μg/mL cysteine in CB. Human fibrinogen (25 μg/mL) was incubated with the substrates and unbound protein removed by washing. Bound fibrinogen was detected using HRP-conjugated goat anti-fibrinogen antibody (MP Biomedicals #55239) and 1-Step™ Ultra TMB-ELISA (Pierce). The TMB reaction was quenched with 1 M H2SO4 before measuring the Abs450 nm using the SPECTRAMAX® M2 (Molecular Devices, Sunnyvale, Calif.). All intervening wash steps were conducted using washing buffer (WB) comprising 150 mM NaCl, 100 mM phosphate, 0.05% Tween-20, pH 7.2; all binding steps were conducted using binding buffer (BB) comprising PBS+1% BSA. For basic affinity assays, the concentration of the fusion proteins was varied. For specificity assays, varying concentrations of Gxxx (SEQ ID NO:20) tetrapeptides (Genscript, Piscataway, N.J.) were added to the fibrinogen solution during incubation with the covalently immobilized proteins.
The tetrapeptides GPRV (SEQ ID NO:2) and GHRP (SEQ ID NO:3) are also known to bind fibrinogen via knob:pocket interactions, albeit with reduced affinities (Laudano A P, et al. Biochemistry 1980, 19(5):1013-1019).
A general note: In an ELISA, binding on a coated surface is turned into a signal by an enzyme label.

Data set [2] concerns the target T2, fibrinogen (Homo sapiens, UniProt P02675+P02679).
T2 sequence (P02679 27-433 limits assumed): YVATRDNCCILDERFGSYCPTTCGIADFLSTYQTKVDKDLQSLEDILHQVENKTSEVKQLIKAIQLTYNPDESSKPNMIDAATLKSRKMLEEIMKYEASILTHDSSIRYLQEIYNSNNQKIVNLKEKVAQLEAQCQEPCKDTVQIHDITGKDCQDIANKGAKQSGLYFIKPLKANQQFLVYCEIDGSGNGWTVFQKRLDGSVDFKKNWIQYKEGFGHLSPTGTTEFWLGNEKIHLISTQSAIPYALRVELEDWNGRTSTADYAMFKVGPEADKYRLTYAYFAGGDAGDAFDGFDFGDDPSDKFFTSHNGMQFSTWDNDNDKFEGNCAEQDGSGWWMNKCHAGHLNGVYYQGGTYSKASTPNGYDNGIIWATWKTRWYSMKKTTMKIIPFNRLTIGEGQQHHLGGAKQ
T2 sequence (P02675 31-491): T1 sequence (P02675 31-491)
T2 sequence (P02671 20-629 partner limits assumed): T1 sequence (P02671 20-629 partner limits assumed)
As to the kind of experiment: Turbidity and percent clottability with PEGylated knob peptides. In kind it is biochemical. As to conditions: 1:1 molar ratio; for percentage of clottable protein: no-peptide ˜95%. As for the experimental part: Polymerization rate (turbidity curves), percent clottable protein, fiber structure (SEM), and viscoelastic properties of fibrin polymerized in the presence or absence of PEGylated-GPRPFPAC (5 kDa linear PEG chain, SED ID NO:53) at a 1:1 molar ratio were evaluated.
The turbidity curves upon initiating thrombin-activated polymerization and the amount of soluble protein remaining in the clot liquor after polymerization (percent clottable protein) were evaluated. All assays were performed with 1 mg/ml fibrinogen, 1 U/ml thrombin, 1 U/mL factor XIIIa, and 5 mM CaCl2; all PEG conjugates were tested at a 1:1 molar ratio.

Where no end group is shown, it is not given here.

Turning to GPRP, the “excess necessary to completely inhibit fibrin assembly” value at fibrin is ≥ 100 -fold excess. Moreover, at fibrinogen [1], the “competition with immobilized GPRP-FnIII9-10-C for binding to fibrinogen” value was “dose-dependent inhibition of fibrinogen binding”.
With “GPRPFPAC-PEG: GPRPFPAC conjugated to 5 kDa linear PEG chain (also: conjugated to 5 kDa linear PEG, site not given here; listed as Homo sapiens)”, the “maximum absorbance turbidity value” with fibrinogen [2] (1 mg/ml fibrinogen, 1 U/ml thrombin, 1 U/mL factor XIIIa) is “lower maximum absorbance turbidity value”. The “percentage of clottable protein” value in the data set with fibrinogen [2] stood at 92%.
As to “GPSPFPAC-PEG: control peptide conjugate, GPSPFPAC (SEQ ID NO:18) with PEG (also: PEG conjugate, site not given here; listed as Homo sapiens) [reference compound]”, the “percentage of clottable protein” value in the data set with fibrinogen [2] is given as “did not change”.

The record behind these values is patent US8513380B2, “Peptides for binding fibrinogen and fibrin” (Georgia Tech Research Corporation, priority 2009, dated 2013).
